Measured values reported in the supplement of paper PMC12042874.
± gives the uncertainty stated by the source.

Experiment: amyloid nucleation score (Sup35N fusion, yeast selection) (log enrichment); library NNK2; higher = more nucleation; inactive = no reads after selection
Method in brief: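 The nucleation score equals the log enrichment of output over input reads from DiMSum, centred on the mode score of non-aggregating sequences. It was computed only for sequences with 100 or more input reads. The reads came from Illumina sequencing of plasmid inserts from psi-negative yeast expressing Sup35N fused to peptides of 20 random codons, induced with 100 μM copper sulfate for 24 hours and grown 7 days at 30°C without adenine and uracil.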

| Substance | amyloid nucleation score |
| --- | --- |
| FSSSFVVWALYPVTFHLTRS | 0.112 ± 0.4 |
| FSSSI | inactive |
| FSTQGTFVSVHGVADLAVCF | inactive |
| FSTRGSAMLRVAGLSGPRAS | 0.29 ± 0.43 |
| FSVLMEDHSRFIF | inactive |
| FSVRRLVDHFSNSMEDPHLP | -0.342 ± 1 |
| FSVSSLVAVMNNTHLVVSGG | 2.34 ± 0.081 |
| FSVTMDGYIRI | 0.06 ± 0.44 |
| FSYFVFLVKFVTVFTPTIHV | -1.12 ± 0.3 |
| FSYMWAHTGSFPRRQVIITI | -0.596 ± 0.55 |
| FTAFWGYSTSVFHMDMCLRK | 2.17 ± 0.071 |
| FTFDMVSSKSQYMNIDRNVR | -0.996 ± 0.78 |
| FTRRSGSRLWTRFALGDWVA | inactive |
| FTSSYKSAVRTLIFVLSESG | 0.331 ± 0.36 |
| FTTFRR | -0.854 ± 0.55 |
| FTTPSRS | 0.623 ± 0.53 |
| FTVMFLLKMISFKGALHLRL | -0.764 ± 0.65 |
| FTWLRPRGFS | -0.676 ± 0.27 |
| FVDVKHDVVKAMRLWFR | -0.632 ± 1.1 |
| FVEITRG | -0.196 ± 1.1 |
| FVGTCSHYRGCSVCFITDLL | 6.135 ± 0.057 |
| FVGVYMVLRSLGDRVSYVMF | inactive |
| FVHERASGIVMLRGISVRGP | -0.327 ± 0.48 |
| FVLSTVRLSAASAPMRFTHL | 0.468 ± 0.74 |
| FVNLRFSKVGWYDLF | -0.255 ± 0.65 |

| Substance | amyloid nucleation score |
| --- | --- |
| FVRNKLMADFFWLGFYN | -1.79 ± 0.63 |
| FVSLWT | 0.277 ± 0.45 |
| FVTAKSYNVLISKGYRKELL | -0.716 ± 0.48 |
| FVTCYKLWMAFYTMVQSRKS | 1.17 ± 0.48 |
| FVYSVRS | 0.025 ± 0.63 |
| FWGGKNYI | -1.5 ± 0.75 |
| FWLGSVVGNSCAWVITWAIL | -0.036 ± 0.44 |
| FWVALYFSTCFPHDMLSSGP | -0.734 ± 0.54 |
| FWVVIVAHSVSWLLLTWQLE | 0.553 ± 0.65 |
| FYDSVKEISVLSCVWGDILE | 7.235 ± 0.029 |
| FYIKRVTAVNCDTDSSFNVL | -0.805 ± 0.42 |
| FYISKFLAWFIIPSGLFLGN | -1.72 ± 1.1 |
| FYKHMLVTATFSLMYITQDD | -0.404 ± 0.48 |
| FYPVFKSMLVMAGVTRHLAR | -0.487 ± 0.26 |
| FYSGKRARMGGEGGEKTPRS | -1.2 ± 0.48 |
| FYVRSSTYFFHVYNYL | -0.387 ± 0.28 |
| FYWHCKGWQRISLGRFIGDC | -0.622 ± 0.61 |
| GACVAKATF | 0.616 ± 0.19 |
| GAELPKYESRLPFLSAGLRQ | -0.048 ± 0.53 |
| GASPWPHTTMIFISILSNCV | 3.37 ± 0.11 |
| GAVNFYHT | 4.06 ± 0.044 |
| GCDTRHSPLVSNALGLAIAS | -0.052 ± 0.49 |
| GCHVRSFK | 0.158 ± 0.31 |
| GCLMVGINGCPIGPM | -1.11 ± 1.1 |
| GCLPHGY | 0.663 ± 0.62 |

| Substance | amyloid nucleation score |
| --- | --- |
| GCSVCDMTF | 0.073 ± 0.53 |
| GDKVACKEIWTVNVYVNTLG | 0.229 ± 0.26 |
| GDKYICELHWRFLGQNSVW | 4.07 ± 0.11 |
| GDMVIDLSKYITYSSL | 1.37 ± 0.38 |
| GDRDVI | 1.31 ± 0.38 |
| GDRYSSYSRFEEY | 0.565 ± 0.19 |
| GECLDR | 2.83 ± 0.075 |
| GEFSLF | 0.2 ± 0.37 |
| GEHRQGCYFGAIVFAILMFS | 0.007 ± 0.55 |
| GESSPE | 0.343 ± 0.8 |
| GFDLNFRYA | 4.43 ± 0.077 |
| GFFTPPRVRNNTSEGDVK | -0.418 ± 1.1 |
| GFHIGDVCNYGVVFSSVARL | 5.863 ± 0.05 |
| GFHSCG | 4.85 ± 0.067 |
| GFLGCESREKEECSIKERLC | -0.515 ± 1 |
| GFLQSGCPSTLLSLRKRAIL | 0.307 ± 0.51 |
| GFPVWVYYKMDLYCLSVKGI | -0.672 ± 0.61 |
| GFWEGRILG | 2.61 ± 0.22 |
| GGHDCTVPDGFALGWYMTRG | 0.995 ± 0.51 |
| GGIFFCGIWCLVYDVSVFVA | 3.43 ± 0.11 |
| GGLMRTSPNS | -0.108 ± 1.1 |
| GGLPGRVVEATCWYPVINVR | 0.889 ± 0.47 |
| GGMDNQCHLVRCGRRSLAPV | 1.65 ± 0.4 |
| GGPSGQFCYPGGNKGYCN | -0.724 ± 1 |
| GGSRTRSCQDRAHEGGK | 0.949 ± 0.74 |

| Substance | amyloid nucleation score |
| --- | --- |
| GGTIKALYNSSGTRRMSKLR | -0.224 ± 0.2 |
| GGTPRSINVF | 0.201 ± 0.8 |
| GGYGLICCYQMLEDSTKDMM | -0.603 ± 1.1 |
| GHCLSYMCVGLA | 4.304 ± 0.039 |
| GHLNFS | -0.166 ± 1.1 |
| GHLRYTIDTGTTSGSSDLMS | -0.842 ± 0.63 |
| GHPSIDAQTPV | 1.39 ± 0.47 |
| GICHWGLLFTACFIPWRMRG | 1.37 ± 0.32 |
| GIFTTWNRISRRLCLRVHYP | -0.497 ± 0.34 |
| GIIDMSRLVMHQITEPLLSQ | 0.092 ± 0.32 |
| GILMISDAYDIREYFKLVTF | -1.32 ± 0.62 |
| GIMSSELLYYYVRISYESC | -1.21 ± 0.45 |
| GINCRGAIR | -0.345 ± 0.26 |
| GINFVF | -0.287 ± 0.79 |
| GINISVLNMRQLFRLSAGSH | 4.36 ± 0.086 |
| GIYVEEWGHSVPALRWIDKS | 0.309 ± 0.8 |
| GKCFIWCSMGIWLGVCDQSA | 3.59 ± 0.089 |
| GKGANARLCIRYDITAVEGT | 1.61 ± 0.44 |
| GKLRLLWKGITCVRAFANKL | -0.976 ± 0.34 |
| GKRYCWSLAVNRGFTDTLGV | 0.261 ± 0.46 |
| GKTYLDKLMGGLHRQDPGTR | 1.28 ± 0.53 |
| GLCKTVSWRNSSLEKDLFGR | -0.813 ± 0.78 |
| GLCSIYNWYLVFQVIRTLSW | 2.41 ± 0.14 |
| GLERNRFGRQCLGWLLWNEA | 0.065 ± 1.1 |
| GLFGGIHFVANLGTPPCLDE | 1.56 ± 0.31 |

| Substance | amyloid nucleation score |
| --- | --- |
| GLFRWYNMDNYVQI | -0.604 ± 0.76 |
| GLFWVCAGGGKVGEYRYSGV | 0.021 ± 0.39 |
| GLGGTTFI | -1.04 ± 0.43 |
| GLGVSTKRLYFTMMADCFNG | 0.131 ± 0.49 |
| GLHEVR | 0.042 ± 0.65 |
| GLKMLFNVNLQDM | -0.368 ± 1 |
| GLKTMLY | -0.227 ± 0.27 |
| GLLAPLSSCLCVRDFVGLKA | -0.187 ± 0.3 |
| GLNIGVCLIMHEDRTNSGGK | 8.011 ± 0.032 |
| GLRQVGA | -0.34 ± 0.79 |
| GLRTK | 0.622 ± 0.41 |
| GLRYIS | -0.102 ± 0.5 |
| GLSGMEGKLS | -0.398 ± 0.63 |
| GLYHFRVITASKSQMEGFLM | -0.018 ± 1.1 |
| GMIVVTSGNSR | -0.037 ± 0.42 |
| GMSRYMHSIYD | 1 ± 0.41 |
| GMSTRQFKLLPGCREVMRAG | 0.571 ± 0.64 |
| GMYNLSSGYRCERVGVAENI | -0.513 ± 0.3 |
| GNIAVYNDAILLVWDNESRT | -0.714 ± 1 |
| GNLGSHYALGPLDRATRGER | 0.632 ± 0.26 |
| GNSYNVKTYTNLVGIIMDKA | inactive |
| GNVLFAFTFSVCLKFLAFVF | -0.407 ± 0.64 |
| GNYPPTFACNSN | inactive |
| GPDSLLGFMSAHNWSAKVYP | 0.209 ± 0.44 |
| GPLFPNFKSLGGEYRRH | 0.325 ± 0.42 |

| Substance | amyloid nucleation score |
| --- | --- |
| GQLSVVKCRSY | 1.14 ± 0.29 |
| GQNRKLLDLIYRMLGSLLWH | 0.309 ± 0.8 |
| GREPESF | 1.72 ± 0.13 |
| GRFIHKIVLNDGV | 0.084 ± 0.56 |
| GRIILTLFNYYT | 6.878 ± 0.062 |
| GRILNAEVFGVINASDNCAD | -0.412 ± 0.63 |
| GRLSISDYIY | 1.02 ± 0.61 |
| GRMWEMACFLATNMLGKSDS | 0.959 ± 0.29 |
| GRPVMMEMPII | 0.512 ± 0.42 |
| GRRLSGILRRDGGANGCHRR | 0.098 ± 0.42 |
| GRSGFYCIHKMSVDTFIQKA | 4.27 ± 0.074 |
| GRTSDFKLWIGVCLLGSSYV | 1.89 ± 0.2 |
| GRVKTYTVGFVNIIHFSWLG | 3.57 ± 0.053 |
| GSAHTCSTS | 0.077 ± 0.3 |
| GSCSEHTKLLI | -0.455 ± 0.37 |
| GSEECTLTDCRGSRQDILKR | 0.078 ± 0.77 |
| GSKGIRRYCLTIFVSPVQSA | 0.895 ± 0.81 |
| GSKSCRDYNIKFIYDRYFMG | inactive |
| GSLVQNVFTMDGGDYHMR | 0.307 ± 0.27 |
| GSMSTSASVRPFWRYVFLH | inactive |
| GSSVDNACQSDLPVQVSMKF | -0.478 ± 0.64 |
| GSSYNGNTRLTHVGRSVSVR | -0.632 ± 0.63 |
| GSTVKYWCMPGSSLLLHCVY | 0.611 ± 0.66 |
| GSWFPFWLSASMHGSCIYTR | -0.576 ± 0.44 |
| GSWLCCSLRWSSSALGVGWA | 1.12 ± 0.39 |

| Substance | amyloid nucleation score |
| --- | --- |
| GSWLFREVMPA | -0.51 ± 0.44 |
| GSYHFHASNTD | -0.555 ± 0.79 |
| GSYKSGSSSA | 2.57 ± 0.1 |
| GSYLA | 0.697 ± 0.47 |
| GSYVTAISAHFVGKLCASRI | 0.343 ± 0.8 |
| GTARDGRYSSMKVSDRYFVR | inactive |
| GTFSCGSGEI | 0.534 ± 0.8 |
| GTMDITYTY | 2.44 ± 0.11 |
| GTMQFIVICNSDVFVSWLPN | 7.253 ± 0.071 |
| GTRLNYFNWIICGGETGCAA | -0.171 ± 1 |
| GTSCSMGPAWGLSCYGTFVD | -0.288 ± 0.55 |
| GTSDSWTNVGRHYLKGVRDG | -1.08 ± 0.55 |
| GTSFVKFEK | -0.186 ± 0.23 |
| GTSHWWIGMRFSEADLLLDW | 0.656 ± 0.41 |
| GTSRLNVEGGLYCRGSIVDV | -0.299 ± 0.37 |
| GTTCGSSCRVVSLMKENVGA | -0.367 ± 0.48 |
| GTWMWETFCRLTFVFGIRRG | -0.264 ± 0.54 |
| GVDKGSVYG | inactive |
| GVENKDRVSPNYVG | -0.424 ± 0.49 |
| GVFSLRKGGCRDW | -0.567 ± 1.1 |
| GVGRWIQCQDSWNTNRPSQP | 1.52 ± 0.27 |
| GVKFQAAEAGPPGTYGTLGS | -0.031 ± 0.63 |
| GVKRLVTGVCNKYRDIFFVG | -0.22 ± 1 |
| GVMRIHCGDREC | 0.8 ± 0.54 |
| GVNRAWL | 3.35 ± 0.06 |
